{
  "source": "patent US9637768B2",
  "about": "“Method for preparing sialic acid derivative” (priority 2013, dated 2017)",
  "key": {"[1]": {"test_system": "CC(=O)N[C@H]1[C@H]([C@H](O)[C@H](O)CO)O[C@](OP(=O)(O)OC[C@H]2O[C@@H](n3ccc(N)nc3=O)[C@H](O)[C@@H]2O)(C(=O)O)C[C@@H]1O", "assay": "purified protein, by the assay type", "details": "other: room temperature, substrate 0.1 to 30 mM"}, "[2]": {"test_system": "Photobacterium damselae α-2,6-sialyltransferase (α2,6PdST), all mutants of Table 3 (I411T, L433S, L433T, I411T/L433S, I411T/L433T)", "assay": "kinetic parameters for α-2,6-sialyltransferase, all mutants (summary)", "assay_type": "biochemical", "details": "all mutants vs wild type", "experimental": "The kinetic parameters, kcat and Km, were obtained from nonlinear regression analysis of Michaelis-Menten equation using Sigma Plot (SigmaPlot) program.\nIn order to appreciate the effect of each mutation on the donor substrate and the acceptor substrate, kinetic parameters for a single amino acid substitution mutant and a combinatorial mutant were measured."}, "[3]": {"test_system": "α-2,6-sialyltransferase", "text": "The entire vector was subjected to PCR using a primer into which NNK sequence (a sequence where N is A, C, G or T, K is G or T) is introduced, the NNK sequence obtained by randomly replacing ATT and CTG sequences corresponding to amino acid positions 411 and 433 of α-2,6-sialyltransferase, thereby constructing a library. In α-2,6-sialyltransferase of the present invention, methionine is the first amino acid when counting from the first methionine sequence. In order to remove the original plasmid, the amplified gene of the sialyltransferase including the vector sequence was treated with Dpn enzyme and transformed into E. coli DH5a. Mutant genes were extracted from all of generated colonies and transformed into E. coli BW25113 (DE3). The transformed individual colonies were inoculated in the LB medium (500 μL) containing ampicillin in 96 well and shake-cultured at 30 to 37° C. for 18 to 24 hours, and then some of the culture liquid was inoculated in new LB medium (500 μL) containing 100 μg mL^−1 ampicillin and IPTG and cultured at 18 to 30° C. for 18 to 40 hours. […]\nThe wild type strain and mutants of sialyltransferase transformed into E. coli BW25113 (DE3) were expressed using the inducer IPTG in a culture volume of 50 mL, and purified to obtain only pure protein using Ni-NTA column, and specific activity and kinetic parameters were measured."}},
  "data": [
    {"molecule": "Pasteurella multocida α-2,3-sialyltransferase (α2,3PST) variant R313H/T265S (= R289H/T241S of SEQ ID NO: 1), SEQ ID NO: 6 (Pasteurella multocida; R313H/T265S)", "values": [
      {"measurement": "Km", "setting": "[1]; R313H/T265S", "value": 3940, "unit": "µM"}
    ]},
    {"molecule": "Pasteurella multocida α-2,3-sialyltransferase (α2,3PST) variant R313N/T265S (= R289N/T241S of SEQ ID NO: 1), SEQ ID NO: 5 (Pasteurella multocida; R313N/T265S)", "values": [
      {"measurement": "Km", "setting": "[1]; R313N/T265S", "value": 3330, "unit": "µM"}
    ]},
    {"molecule": "Pasteurella multocida α-2,3-sialyltransferase (α2,3PST) variant R313N (= R289N of SEQ ID NO: 1), SEQ ID NO: 2 (Pasteurella multocida; R313N)", "values": [
      {"measurement": "Km", "setting": "[1]; R313N", "value": 2510, "unit": "µM"}
    ]},
    {"molecule": "Pasteurella multocida α-2,3-sialyltransferase (α2,3PST) variant R313H (= R289H of SEQ ID NO: 1), SEQ ID NO: 3 (Pasteurella multocida; R313H)", "values": [
      {"measurement": "Km", "setting": "[1]; R313H", "value": 3240, "unit": "µM"}
    ]},
    {"molecule": "Pasteurella multocida α-2,3-sialyltransferase (α2,3PST) variant T265S (= T241S of SEQ ID NO: 1), SEQ ID NO: 4 (Pasteurella multocida; T265S)", "values": [
      {"measurement": "Km", "setting": "[1]; T265S", "value": 2230, "unit": "µM"}
    ]},
    {"molecule": "Pasteurella multocida (ATCC15742) α-2,3-sialyltransferase (α2,3PST), wild type, SEQ ID NO: 1 (Pasteurella multocida)", "values": [
      {"measurement": "Km", "setting": "[1]; wild type", "value": 1830, "unit": "µM"}
    ]},
    {"molecule": "OC[C@H]1O[C@@H](O[C@H]2[C@H](O)[C@@H](O)C(O)O[C@@H]2CO)[C@H](O)[C@@H](O)[C@H]1O", "note": "(stereo partly drawn) [Lac, lactose]", "values": [
      {"measurement": "binding force with the acceptor substrate", "setting": "[2]", "value": "reduced"}
    ]},
    {"molecule": "L433T (protein, L433T) MCNSDNTSLKETVSSNSADVVETETYQLTPIDAPSSFLSHSWEQTCGTPILNESDKQAISFDFVAPELKQDEKYCFTFKGITGDHRYITNTTLTVVAPTLEVYIDHASLPSLQQLIHIIQAKDEYPSNQRFVSWKRVTVDADNANKLNIHTYPLKGNNTSPEMVAAIDEYAQSKNRLNIEFYTNTAHVFNNLPPIIQPLYNNEKVKISHISLYDDGSSEYVSLYQWKDTPNKIETLEGEVSLLANYLAGTSPDAPKGMGNRYNWHKLYDTDYYFLREDYLDVEANLHDLRDYLGSSAKQMPWDEFAKLSDSQQTLFLDIVGFDKEQLQQQYSQSPLPNFIFTGTTTWAGGETKEYYAQQQVNVINNAINETSPYYLGKDYDLFFKGHPAGGVINDIILGSFPDMINIPAKISFEVLMMTDMLPDTVAGIASSTYFTIPADKVNFIVFTSSDTITDREEALKSPLVQVMLTLGIVKEKDVLFWA", "values": [
      {"measurement": "activity increase compared to the wild type strain", "setting": "[3]; mutant search by colorimetry", "value": 3, "unit": "times"},
      {"measurement": "Rel. Specific Ac (%)", "setting": "[3]; α2,6PdST, relative to wild type, purified protein, CMP-N-acetylneuraminic acid and lactose", "value": 296, "unit": "%"}
    ]}
  ]
}
